The values that follow come from patent publication US20100279923A1.

This assay has as its target T1, factor XII (FXII/FXIIa) in rat plasma (rat) (UniProt D3ZTE0).
T1 sequence (looked up): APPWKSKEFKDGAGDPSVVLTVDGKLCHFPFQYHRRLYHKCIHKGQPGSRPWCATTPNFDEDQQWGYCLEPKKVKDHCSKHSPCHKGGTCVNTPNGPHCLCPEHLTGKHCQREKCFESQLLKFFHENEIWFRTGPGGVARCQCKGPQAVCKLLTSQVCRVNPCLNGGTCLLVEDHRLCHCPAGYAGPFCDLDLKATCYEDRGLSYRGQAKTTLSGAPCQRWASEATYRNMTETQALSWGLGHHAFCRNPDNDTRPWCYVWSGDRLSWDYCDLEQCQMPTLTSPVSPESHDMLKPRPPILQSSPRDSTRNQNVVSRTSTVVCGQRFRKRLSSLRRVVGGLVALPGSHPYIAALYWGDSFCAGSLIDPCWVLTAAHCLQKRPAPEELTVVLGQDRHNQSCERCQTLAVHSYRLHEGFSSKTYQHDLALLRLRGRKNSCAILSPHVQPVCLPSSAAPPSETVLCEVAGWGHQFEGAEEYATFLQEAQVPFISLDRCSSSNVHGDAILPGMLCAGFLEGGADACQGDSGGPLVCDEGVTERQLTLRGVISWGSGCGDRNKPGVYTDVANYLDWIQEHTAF
Briefly: cell-based or functional assay.

B1: Berinert P (C1 esterase inhibitor) (protein, human, UniProt P05155 23-500, looked up)
chain: NPNATSSSSQDPESLQDRGEGKVATTVISKMLFVEPILEVSSLPTTNSTTNSATKITANTTDEPTTQPTTEPTTQPTIQPTQPTTQLPTDSPTQPTTGSFCPGPVTLCSDLESHSTEAVLGDALVDFSLKLYHAFSAMKKVETNMAFSPFSIASLLTQVLLGAGENTKTNLESILSYPKDFTCVHQALKGFTTKGVTSVSQIFHSPDLAIRDTFVNASRTLYSSSPRVLSNNSDANLELINTWVAKNTNNKISRLLDSLPSDTRLVLLNAIYLSAKWKTTFDPKKTRMEPFHFKNSVIKVPMMNSKKYPVAHFIDQTLKAKVGQLQLSHNLSLVILVPQNLKHRLEDMEQALSPSVFKAIMEKLEMSKFQPTLLTLPRIKVTTSQDMLSIMEKLEFFDFSYDLNLCGLTEDPDLQVSAMQHQTVLELTETGVEAAAASAISVARTLLVFEVQQPFLFVLWDQQHKFPVFMGRVYDPRA
Turning to B1, the FXII activity [% of the norm] in rat plasma spiked with 0.98 U/mL Berinert P (% of the norm) amounted to 215, the FXII activity [% of the norm] in rat plasma spiked with 2.4 U/mL Berinert P (% of the norm) worked out at 94, the FXII activity [% of the norm] in rat plasma spiked with 4.5 U/mL Berinert P (% of the norm) was found to be 85 and the FXII activity [% of the norm] in rat plasma spiked with 9.92 U/mL Berinert P (% of the norm) was 55. The same molecule yielded an FXII activity [% of the norm] in rat plasma spiked with 16.7 U/mL Berinert P (% of the norm) of 25.
